Laboratory results taken from the nanobody polyreactivity screen of Harvey et al. (2022).

Experiment: yeast display, Sf9 membrane polyspecificity reagent, FACS + sequencing; frameworks hold sequencing errors
Procedure, shortened: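 Sorting gates, low and high (top ~1%), were placed on anti-HA fluorescence to track expression and on streptavidin fluorescence to track reagent binding. A clone's polyreactivity label is taken from the gate it came out of. The reagent was 10% biotinylated, detergent-solubilized Sf9 membrane, applied for 1 hour at 4 °C to galactose-induced yeast display cells.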

In the case of “QVQLVESGGGLVQAGGSLRLSCAASGRIFFYYAMGWYRQAPGKERELVATISYSGGCTYYADSVKGRFTISRDNAKNTVYLQMNSLKPEETAVYYCNARWGTPYYIQDFDYWGQGTQVTVSS”, the “polyreactivity (PSR sort gate)” value was “low polyreactivity”.

With “QVQLVESGGGLVQAGGSLRLSCAASGFIFRYYARGWYRQAPGKERELVAAISSTGGSTSYADSVKGRFTISRDNAKNTVYLQLNSQKPEDTAVYDCAADYWIRRRTYGQLYRPYYYWGQGTQVTVSS” the “polyreactivity (PSR sort gate)” value was “high polyreactivity”.

With “QVQLVESAGGLVQAGGSLRLSCAASGYIFWENAMGWYRQAPGKERELVAAITVSGGGTYYADSVKGRFTISRDNAKNTVYLQMNSLKPEDTAVYYCAADEDNPWLWFYYWGHGTQVTVSS” the “polyreactivity (PSR sort gate)” value was “low polyreactivity”.

For “QVQLVESGGGLVQAGGSLRLSCAASGFTFGRYAMGWYRQAPGKERELVAAISSSGSSTYYADSVKGRFTLSRDNAKNTVYLQMNSLKPEDTAVYYCNTRCRKHPSSYPYDYWGQGTQVTVSS”, the “polyreactivity (PSR sort gate)” value was “high polyreactivity”.

For “QVQLVESGGGLVQAGGSLRLSCAASGRIFSVYTMGWYRKAPGKERELVATISSGGRTNYADSVKGRFTISRDNAKNTVYLQMNSLKPEDTAVYYCAAVPYGFVGYDDYWGQGTQVTVSS”, the “polyreactivity (PSR sort gate)” value was “low polyreactivity”.

With “QVQLVESGGGLVQAGGSLRLSCAASGSIFDAYAMGWYRQATGKERELVAAITYSGGSTYYADSVKGRFTISRDNAKNTVYLQMNSLKPEDTAVYYCNTDSRVRTWFRAFTYDSWGQGTQVTVSS” the “polyreactivity (PSR sort gate)” value was “low polyreactivity”.

In the case of “QGQLVESGGGLVQAGGSLRLSCAASGRSVARYAMGGYRQAPGKERELVAAITVSGDNTYYADSVKGRFTISRDNAKNTVYLQMNSLKPEDTAVYYCAVRAVLLIGFFEYDYWGQGTQVTVSS”, the “polyreactivity (PSR sort gate)” value was “low polyreactivity”.

In the case of “QVQLVESGGGLVQAGGSLRLSCAASGRIFTLYTMGWYRQAPGKERELVAAISSSGGRTYYADSVKGRFTISRDNAKNTVYLQMNSLKPEDTAVYYCNAGYWYYGQDDYWGQGTQVTVSS”, the “polyreactivity (PSR sort gate)” value was “high polyreactivity”.

For “QVQHVESGGGLDQAGGSLRLRCAAYGFTFSFYAMGWYRQEPGKERELVAAISYSGGITYYADSVKGRFTISRDNAKNTVYLQMNSLKPEDTAVYYCAAVPYYSKGSSLYNSGNNYWGQGTQVTVSS”, the “polyreactivity (PSR sort gate)” value was “low polyreactivity”.

For “QVQLVESGGALFQAGGSLRLSCAASGRIFTIYASRWYRQAPGKATELVATISRRGGSTYYADSVKGRFTISRDNAKNNVYLQMNSLKPEVSAVYYCAADSVITWWAYDYWGQGTQVTVSS”, the “polyreactivity (PSR sort gate)” value was “high polyreactivity”.

For “QVQLVESRGALVQAGGSLRLSCAASGYIFYSNAMRWYRQEPGKERELVAAITSGRGSTYYADSVKGRFTISRDNAKNTVYLQMNSLIPEDTAVYYCDVSIGRYPYRYGYWGQGTQVTVSS”, the “polyreactivity (PSR sort gate)” value was “high polyreactivity”.

For “QVQLVESGGGLVQAGGSLRLSCAASGFTFAYYAMGWYRLAPGKERELVAAINRSGGSTYYADSVKGRFTISRDNAKNTVYIEMNSLKPEDTAVYYCAAARPSLRDGVAHYYWGQGTQVTVSS”, the “polyreactivity (PSR sort gate)” value was “high polyreactivity”.

In the case of “QVQLVESGGGLVQAGGSLRLSCAASGRIFWSYGMGWYRQAPGKERELVAAITNTGDGTYYADSVKGRFTISRDNAKNTVYLQMNSLKPEDTAVYYCAVDYRGYWYWEYDYWGQGTQVTVSS”, the “polyreactivity (PSR sort gate)” value was “high polyreactivity”.

With “QDQLVESGGGLVQAGGSLRLSCAASGFIFFYYAMGRYRQAPGKERELVAAISSSGGSTYYADSVKGRFTISRDNAKNTVYLQMNSLKPEDTAVYYCAAQYNVPRDKYYYWGQGTQVTVSS” the “polyreactivity (PSR sort gate)” value was “high polyreactivity”.

In the case of “QVQLVESGGGLVQAGGSLRLSCADSGRTFSTYAMGWYRQAPGKERELVAAISSGGGRTYYADSVKGRFTISRDNAKNTVYLQINSLKPEDTAVYYCAADRYFRSRRSYEYWGQGTQVTVSS”, the “polyreactivity (PSR sort gate)” value was “low polyreactivity”.

In the case of “QVHLVESGGGLVQAGGSLSLSCAASGRNFRAYAMGWYRQAPGKETEFVAAISRSGGSTYYADSVKGRFTISRDYAKNTVYLQMHSLKPVDTAVYYCAARVRYPYRYYYWGQGTQVTVSS”, the “polyreactivity (PSR sort gate)” value was “high polyreactivity”.

For “QVQLVESGGGLVQAGGSLRLSCAASGLTFGYYAMGWYRQAPGKEREFVASITWSGGTTYYADSVKGRFTISRDNAKNTVYLQMNSLKPEDTAVYYCAAQRSYAYEYWGQGTQVTVSS”, the “polyreactivity (PSR sort gate)” value was “high polyreactivity”.

With “QVQLVESGGGLVQAGGSLRLSCAASGRTFGSNAMGWYRQAPGKERELVAVITTSGGSTYYADSVKGRFTISRDNAKNTVYLQMNSLKPEDTAVYYCNKVGWYHNYYYWGQGTQVTVSS” the “polyreactivity (PSR sort gate)” value was “high polyreactivity”.

In the case of “QVQLVESGGGLVQAGGSLRLSCAASGSTFGSYAMGWYRQAPGKERELVAAISRGGGSTYYADSVKGRFTISRDNAKNTVYLQMNSLKPEDTAVYYCAATAQNDSRYGSRYYYWGQGTQVTVSS”, the “polyreactivity (PSR sort gate)” value was “high polyreactivity”.

For “QVQLVESGGGLVQAGGSLRLSCAASGFTFWTYAMGWYRQAPGKERELVAAIDSGGSTYYADSVKGRFTISRDNAKNTVYLQMNSLKPEDTAVYYCNAGPSVTSGYDYDYWGQGTQVTVSS”, the “polyreactivity (PSR sort gate)” value was “low polyreactivity”.

In the case of “QVQLVESGGGLVQAGGSLRLSCAASGLTFNGYTMGWYRQAPGKERELVAGITHSGSTTYTDSVKGRFTISRDNAKNTVYLQMNSLKPEDTAVYYCNARLGKVRVKDDYWGQGTQVTVSS”, the “polyreactivity (PSR sort gate)” value was “low polyreactivity”.

In the case of “QVQLVESGGGLVQAGGSLRLSCAASGFTFYRYVMGWYRQAPGKERELVAAITGGGRTYYADSVKGRFTISRDNAKNTVYLQMNSLKPEDTAVYYCNKAVPAWGLYDYWGQGTQVTVSS”, the “polyreactivity (PSR sort gate)” value was “low polyreactivity”.

With “QVQLVESGGGLVQAGGSLRLSCAASGRTFRLYAMGWYRQAPGKERELVAAISRRGGSTYYADSVKGRFTISRDNAKNTVYLQMNSLKPEDTAVYYCAKGLGSGQEIYGYDYWGQGTQVTVSS” the “polyreactivity (PSR sort gate)” value was “high polyreactivity”.

For “QVQLVESGGGIVHAGGSLRLSCAASGSTFDSYARGWYRQAPGKERELVAAITDSGSSTYYADSVKGRFTISRDNAKNTVYLQMNSLKPEDSAVYYCANYDYHGWSYYRYDYWGQGTQVTVSS”, the “polyreactivity (PSR sort gate)” value was “low polyreactivity”.

With “QVQLVESGGGLVQAGGSLRLSCAASGSIFYRNTMGWYRQAPGKERELVAAITSGGGTNYADSVKGRFTISRDNAKNTVYLQMNSLKPEDTAVYYCAASRQYTVGFYSWGQGTQVTVSS” the “polyreactivity (PSR sort gate)” value was “high polyreactivity”.

With “QVQLVESGGGLVQAGGSLRLSCAASGSTYWNAMGWYRQAPGKERELVAAITFRGGSTYADSLKGRFTISRDNAKNTVSLQMISLKPEDTAVYYCAKASYHRWYNVRNRAGYDYWGQGTQVTVSS” the “polyreactivity (PSR sort gate)” value was “high polyreactivity”.

For “QVQLVESGGGLVQAGGSLRLSCAASGSIAHYAMGWYRQAPGKERELVAAINWSGGSTNYADSVKGRFTISRDNAKNTVYLQMNSLKPEDTAVYYCNAAGGYKPYLQDVASRYDYWGQGTQVTVSS”, the “polyreactivity (PSR sort gate)” value was “high polyreactivity”.

For “QVQLVESGGGLVQAGGSLRLSCAASGIIFRYYAMGWYIQAPGKERELVARITSGARTTYADSVKGRFTISRDNAKNTVYLQMNSLKPEDSAVYYCNAVRRYGLEYNYWGQGTQVTVSS”, the “polyreactivity (PSR sort gate)” value was “high polyreactivity”.

With “QVHLVESGGPLVQAGGSLRLSCAASGRIFQINAMVWYRQAPGKERELVAGITGSGGSTDYADSVKGRFTISRDKSKNTVYLQMNSLKPEDTAVYYCAADTYTDGYDYWGQGTQVTVSS” the “polyreactivity (PSR sort gate)” value was “low polyreactivity”.

With “QVQLVESGGCLVQAGGSLRLSCAASGSTFNFYAMGWYRQAPGKEREFVAAITSSGDSTYYADSVKGRFTISRDNAKNTVYLQMNSLKPEDTAVYYCAALTPRNRYRKFDYWGQGTQVTVSS” the “polyreactivity (PSR sort gate)” value was “high polyreactivity”.

For “QVQLVESGGGLVQAGGSLRVSCAASGITSPYNAMGWYRQAPGKERELVAGITSGDSTDYADSVKGRFTISRDNAKNTVYLQMNSLKPEDTAVYYCAADSIRYCDYDYWGHGTQVTVSS”, the “polyreactivity (PSR sort gate)” value was “low polyreactivity”.

With “QVQLGESGGGLVQAGGSLRLSCAASGRIVRFYAMGWYRQAPGKERELVATISRSGGSTYYADSVKGRFTISRDNAKNTVNIQMNSLKPEDTAVYYCARLVGSRYGHWGQGTQVTVSS” the “polyreactivity (PSR sort gate)” value was “high polyreactivity”.

For “QVQLVESGGGLVQAGGSLRLSCAASGLTFEGYAMGWYRQAPGKERELVAAISSSSGRTYYADSVKGRFTISRDNAKNTVYLQMNSLKPEDTAVYYCAARPGSGRSYTSDYWGQGTQVTVSS”, the “polyreactivity (PSR sort gate)” value was “high polyreactivity”.

With “QVQLVESGGGLVQAGGSLRLSCAASGFTIESNAMGWYRQAPGKERELVAAISASGDSTYYADSVKGRFTISRDNAKNTVYLQMNSLKPEDTAVYYCAADRYYGGWRFDHWGQGTQVTVSS” the “polyreactivity (PSR sort gate)” value was “low polyreactivity”.

For “QGQPVESGGGLVQAGGILRLSCAASGFISGGNAMGWDRQAPGKEREFVAAIDNTGSTYYADSVKGRFTISRDNEKNTVYLQMISLKPEDTAVYYFNAEVTEDYVDNDYGGQGTQVTVSS”, the “polyreactivity (PSR sort gate)” value was “low polyreactivity”.

In the case of “QVQLVESGGGLVQAGGSLRLSCAASGSSFSHNVMGWYRQAPRKERELVATINWSGGSTYYADSVKGRFTISRDNAKKSDYLQMNSLKPEDTAVYYCAADRQITVYAYDYWGQGTQVTVSS”, the “polyreactivity (PSR sort gate)” value was “low polyreactivity”.

For “QVQLVESGGGLVQAGGSLRLSCAASGSIFDTYAMGWYRQAPGKERELVAAITWGGGRTYYADSVKGRFTISRDNAKNTVYLQMNSLKPEDTAVYYCAARWRLRGGNQRYGYWGQGTQVTVSS”, the “polyreactivity (PSR sort gate)” value was “high polyreactivity”.

With “QVQLVESGGGIVQAGGSLRLTCAASGRIFAWYAMGWYRQAPWKERELVASITWGGGRTYYADSVKGRFTISRDNAKNTVYLQMNCLKPEVTAVYYCAAYRYKEEAYLGVAQERDYWGQGTLVTVSS” the “polyreactivity (PSR sort gate)” value was “low polyreactivity”.

For “QVQLVESGGGLVQAGGTLRLSCAASGSTFYLYAMGWYRQAPGNERELVAAISSAGGSTYYADSVKGRFTISRVNAKNTVYLQMNSLKPEDTAVYYCTRDIRRRGNYWGQGTQVTVSS”, the “polyreactivity (PSR sort gate)” value was “high polyreactivity”.

With “QVQLVESGGRIVQAGGSLRLRCAASGSTFRWYAMGRYRQAPGKERQLVASITWSGGGTYYADSVKGRFTISRDNAKNTVYLQMNSLKPEDTAVYYCNRRTWRYETRGDDYWGQGTQVTVSS” the “polyreactivity (PSR sort gate)” value was “high polyreactivity”.

In the case of “QVQLVESGGGLVQAGGSLRLSCAASGRIFYAYAMGWYRQAPGKERELVAAITFSGGSTYADSVKGRFTISRDNAKNTVYLQMNSLKPEDTAVYYCAADFGRHPRDYDYYWGQGTQVTVSL”, the “polyreactivity (PSR sort gate)” value was “low polyreactivity”.

For “QVQLVESGGGLVQAGGSLRLSCAASGSTLSKYAMGWYRQAPGKERELVAAISQRGGSTYYADSVKGRFTISRDNAKNTVYLQMNSLKPEDTAVYYCNALQRRYGYWGQGTQVTVSS”, the “polyreactivity (PSR sort gate)” value was “high polyreactivity”.

In the case of “QVQLVESGGGLVQAGGSLLLSSAASGIIFNQYAMGWYRQAPGKERELVATISSGGARTYYADSVKWRFTISRDNAKNTVYLQMNSRKPEDTAVYFCNRRVPYSFYSRGYYYWGQGTQVTVSS”, the “polyreactivity (PSR sort gate)” value was “high polyreactivity”.
